Reference: patent US20220112288A1 (published 2022)
Where a chain is given by its changes, count along the chain named.

B1: 75110_02E08A (antibody, V domains shown)
VH: QVQLQESGPGLVKPSETLSLTCTVSGGSISTYYWTWIRQPAGKGLEWIGRVYTSGDTNYNPSLKSRVAMSLDTSKNQFSLKLSSVTAADTAVYYCARDSGALYSWNYGDAFDIWGQGTMVTVSS
VL: DIQMTQSPSAMSASVGDRVTITCRASQDISNYLAWFQQKPGKVPKRLIYAASSLQSGVPSRFSGSGSGTEFTLTISSLQPEDFATYYCLQHNSYPRTFGQGTKVEIK
notes: Tested as clonal hybridoma supernatant (AlivaMab Mouse Kappa; anti-mouse Fc detection)
B2: 75110_02K11A (antibody, V domains shown)
VH: QVQLQESGPGLVKPSQTLSLTCTVSGGSISSGFYYWTWIRQHPGKGLEWIGYISYSGNTYYNPSFKSRLTISVDTSKSQFSLKLSSVTAADTAVYYCARDRPSNFDAFDIWGQGTMVTVSS
VL: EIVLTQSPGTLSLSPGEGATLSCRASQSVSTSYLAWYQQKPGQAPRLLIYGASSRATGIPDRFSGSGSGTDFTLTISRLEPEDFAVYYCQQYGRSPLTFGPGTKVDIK
notes: Tested as clonal hybridoma supernatant (AlivaMab Mouse Kappa; anti-mouse Fc detection); also called Sib3.1
B3: 75110_04B08A (antibody, V domains shown)
VH: QVQLVESGGGVVQPGRSLRLSCTASGFNFINYGIHWVRQAPGKGLEWVTIIWYDGSKKYYADSVKGRFAISRDNSKNTLYLQMNSLRAEDTAVYYCAREDDWNDGLAYWGQGTLVTVSS
VL: AIQMTQSPSSLSASVGDRVTITCRASQDIRNDLGWYQQKPGKAPNLLIYAASNLQSGVPSRFSGSGSGTDFTLTISSLQPEDFATYYCLQDSNYPRTFGQGTKVEIK
notes: Tested as non-clonal AlivaMab Mouse Kappa hybridoma supernatant, captured by anti-mouse IgG Fc sensor
B4: 75110_02I16A (antibody, V domains shown)
VH: QVQLQQWGAGLLKPSETLSLTCDVYGGSFSGYYWTWIRQPPGKGLEWIGEINHSGTTNSNPSLKSRVTISVDTSKSQFSLRLSSVTAADTAVYFCTRELNWFDPWGQGTLVTVSS
VL: DIQMTQSPSSVSASVGDRVTITCRASQDIANWLAWYQQKPGKAPQLLIYAASSLLGGVPSRFSGSGSGADFTLTISSLHPEDFATYYCQQANSFPYTFGQGTKLEIK
notes: Tested as clonal hybridoma supernatant (AlivaMab Mouse Kappa; anti-mouse Fc detection); also called 75110_02116A
B5: 75110_01L08A (antibody, V domains shown)
VH: QVQLQESGPGLVKPSETLSLTCTVSGGSISHYYWSWIRQPPGKGLEWIGYIHYSGTTNYNPSLKSRVTISVDTSKNQLSLKLRSVTAADTAVYYCARDQGFSSGGMDVWGQGTTVTVSS
VL: not shown
notes: as for B1
B6: 75110_14P05A (antibody, V domains shown)
VH: EVQLVESGGGLVQPGGSLRLSCAASGFTFSSYDVHWVRQATGKGLEWVSTIGTAGDTYYPGSVKGRFTISRENAKNSLYLQMNSLRAGDTAVYYCARGGFYYYGMDVWGQGTTVTVSS
VL: EIVLTQSPGTLSLSPGERATLSCRASQSVSSSYLAWYQQKPGQTPRLLIYGASSRATGIPDRFSGSGSGTDFTLTISRLEPEDFAVFYCQQSGSSPFTFGPGTKVDVK
notes: as for B3
B7: 75110_01J17A (antibody, V domains shown)
VH: B6 VH with V34M, A40G, G55D, K75E, F100D
VL: B6 VL with T5A, S30Y, S31I, T44A, S77T, F87Y, S92F, V107F
notes: Tested as clonal hybridoma supernatant (AlivaMab Mouse Kappa; anti-mouse Fc detection); also called Sib1.12
B8: 75110_10L22A (antibody, V domains shown)
VH: B6 VH with V34M, S84G, G99N, F100Y, Y101F, M105V
VL: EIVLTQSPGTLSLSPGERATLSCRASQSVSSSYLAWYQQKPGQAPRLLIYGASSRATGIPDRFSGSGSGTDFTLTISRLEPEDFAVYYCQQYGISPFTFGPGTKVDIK
notes: as for B3
B9: 75110_01E08A (antibody, V domains shown)
VH: B6 VH with S30N, S31N, V34M, G61A, S70Y, F100D
VL: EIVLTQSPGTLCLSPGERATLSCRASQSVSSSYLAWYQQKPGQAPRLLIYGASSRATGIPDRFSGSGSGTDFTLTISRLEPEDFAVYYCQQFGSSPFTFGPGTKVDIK
notes: as for B3
B10: 75110_14N19A (antibody, V domains shown)
VH: QVQLQESGPGLVKPSETLSLTCTVSGGSISRYYWSWIRQPAGKGLEWIGRICTSENPNYNPALKSRVTMSVDTSKNQFSLKLSSVTAADTAVYYCARELERLNYYGMDVWGQGTTVTVSS
VL: DIQMTQFPSSLSASVGDRVTITCQASQDISNYLNWYQQKPGKAPKLLIYDASNLESGVPSRFSGRGSGTDFTFTISSLQPEDFATFYCQQYDTLPITFGQGTRLEIK
notes: as for B3
B11: 75110_11D03A (antibody, V domains shown)
VH: EVQLVESGGGLVQPGGSLRLSCAASGFTFSSYWMSWVRQAPGKGLEWVANINQDGNEKYYVDSVKGRFTISRDNAKNSLFLQMNSLRAEDTAVYYCAREGGQWLALDYWGQGALVTVSS
VL: DIQMTQSPSSVSASVGDRVTITCRASQGISSWLAWYQQKPGKAPKFLISGASSLQSGVPSRFSGSGSGTDFTLTISSLQPEDFATYYCQQANSFPWTFGQGTKVEIK
notes: as for B3
B12: 75110_01H18A (antibody, V domains shown)
VH: QVQLQQWGAGLLKPSETLSLTCAVYGGSFSGYYWSWIRQSPGKGLEWIGEINQSGSTNYNPSLKSRVTISVDTSKNQFSLKLSSVTAADTAVYYCARVINWFDSWGQGTLVTVSS
VL: B11 VL with F46L, S49Y, G50A, L54F, P80T, W96Y, K103R, V104L
notes: Tested as clonal hybridoma supernatant (AlivaMab Mouse Kappa; anti-mouse Fc detection); also called Sib6.1
B13: 75110_01J09A (antibody, V domains shown)
VH: B11 VH with A23V, I51T, N52K, Q53E, N56S, E57D, S71C, F80Y, A113T
VL: B11 VL with T22N, K45N, F46L, S49F, S67F, T72S, S76T, S77T, Y87H
notes: Tested as clonal hybridoma supernatant (AlivaMab Mouse Kappa; anti-mouse Fc detection); also called Sib2.2
B14: 75110_03D16A (antibody, V domains shown)
VH: B11 VH with N56G, F80Y, A97V, A113T
VL: B11 VL with A34T, S49Y, G50A, S67F
notes: as for B3
B15: 75110_03C01A (antibody, V domains shown)
VH: B12 VH with N76D, T109S
VL: B11 VL with K42N, F46L, S49Y, G50D, L54F, P80T, W96Y, V104L
notes: Tested as clonal hybridoma supernatant (AlivaMab Mouse Kappa; anti-mouse Fc detection); also called Sib6.2
B16: 75110_07H07A (antibody, V domains shown)
VH: B11 VH with L4V, N52K, Q53E, D54E, N56S, F80Y, A97V, A113T
VL: B11 VL with A13G, F46L, S49F, E105Q
notes: as for B3
B17: 75110_12H19A (antibody, V domains shown)
VH: B11 VH with K43Q, Q53E, Y60H, F68L, F80Y, A88G, E89V, Y95F
VL: B11 VL with T20S, F46L, S49Y, S53G
notes: as for B3
B18: 75110_01A06A (antibody, V domains shown)
VH: B11 VH with Q53E, F68L, F80Y, Y95F, A105S
VL: B11 VL with T20S, F46I, S49Y
notes: as for B3
B19: 75110_02N15A (antibody, V domains shown)
VH: B11 VH with Q53E, Y95F, Y108H
VL: B11 VL with I106F
notes: as for B3
B20: 75110_09N20A (antibody, V domains shown)
VH: B11 VH with Q53E, N56S, F80Y, A97V, A113T
VL: B11 VL with F46L, S49Y, G50A, R61S, S76N, E105A
notes: as for B3
B21: 75110_04K10A (antibody, V domains shown)
VH: B11 VH with N56S, F80Y, M83L, V93M, A105S, A113T
VL: B11 VL with F46V, S49Y, A51V, L54F, T72I
notes: as for B3
B22: 75110_12C19A (antibody, V domains shown)
VH: B11 VH with N52K, Q53E, N56S, E57D, F80Y, Y94H, A97V, A113T
VL: B11 VL with A13G, F46L, S49Y, A84V
notes: as for B3
B23: 75110_09G15A (antibody, V domains shown)
VH: B11 VH with S31D, N56S, Y60S, F80Y, V93I, Y94F, A113T
VL: B11 VL with F46L, S49Y, S76N, A84T, S93I
notes: as for B3
B24: 75110_12H17A (antibody, V domains shown)
VH: B11 VH with S31D, N52K, Q53E
VL: B11 VL with S63T
notes: as for B3
B25: 75110_14I16A (antibody, V domains shown)
VH: QVQLQESGPGLVKPSETLSLTCTVSNGSISSYYWSWIRQSAGKGLEWIGRIYTSGSTNYNPSLKSRVTMLVDTSKNQFSLKLSSVTAADTAVYYCARDREDYYYYGMDVWGQGTTVTVSS
VL: DIQMTQSPSSLSASVGDRVTITCQASHDISNYLNWYQQKPGKAPKLLLYYASNLETGVPSRFSGSGSGTDFTFTITSLQPEDIGTYSCQQYDNLPLTFGGGTKVEIK
notes: as for B3
B26: 75110_02E22A (antibody, V domains shown)
VH: B10 VH with R31S, Y32F, C52Y, E55G, N56S, P57T, A62S, R101K, L102R
VL: B25 VL with L48I, Y49F, Y50D, N53T, D70Y, T76R, G84A, S87Y, N93S
notes: Tested as clonal hybridoma supernatant (AlivaMab Mouse Kappa; anti-mouse Fc detection); also called Sib7.1

How the values were obtained:
[1] = target: T1, human CD4 (human, UniProt P01730 26-458); test: FACS, clonal hybridoma supernatant on human PBMCs
T1 construct: whole, on cells; also called hCD4

[2] = target: T2, Recombinant human CD4 (R&D Systems, Cat. 10327-CD) (human, UniProt P01730 26-390, limits assumed); test: BLI Octet, non-clonal supernatant on AMC sensor, 100 nM human CD4;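 further: hybridoma supernatants diluted 1:3, antibodies captured on AMC biosensors, association and dissociation with CD4 followed, curves smoothed and fit locally with 1:1 binding model for single-point kinetics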
T2 construct: Bought reagent; also called huCD4

[3] = target: T2, Recombinant human CD4 (R&D Systems, …); test: BLI Octet, non-clonal supernatant on AMC sensor, 100 nM human CD4, 1:1 local fit;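 further: Single-concentration kinetics per supernatant, with the 1:1 model fitted across both the association and dissociation phases of the sensorgram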

| Binder | % CD4 Stain [1] | gMFI of CD4+ [1] | Response [2] | Kd [3] | koff [3] | kon [3] |
| --- | --- | --- | --- | --- | --- | --- |
| B1 | 35.4% | 115000 gMFI |  |  |  |  |
| B2 | 28.2% | 203000 gMFI |  |  |  |  |
| B3 |  |  | 0.14 | 5.2 nM | 0.0012 s⁻¹ | 230000 M⁻¹ s⁻¹ |
| B4 | 36.1% | 145000 gMFI |  |  |  |  |
| B5 | 35.3% | 208000 gMFI |  |  |  |  |
| B6 |  |  | 0.149 | 12.3 nM | 0.00185 s⁻¹ | 150000 M⁻¹ s⁻¹ |
| B7 | 35.2% | 167000 gMFI |  |  |  |  |
| B8 |  |  | 0.113 | 117 nM | 0.0065 s⁻¹ | 55700 M⁻¹ s⁻¹ |
| B9 |  |  | 0.1 | 10 nM | 0.0014 s⁻¹ | 140000 M⁻¹ s⁻¹ |
| B10 |  |  | 0.105 | 19.2 nM | 0.00274 s⁻¹ | 143000 M⁻¹ s⁻¹ |
| B11 |  |  | 0.177 | 4.67 nM | 0.000524 s⁻¹ | 112000 M⁻¹ s⁻¹ |
| B12 | 48.8% | 101000 gMFI |  |  |  |  |
| B13 | 34.8% | 143000 gMFI |  |  |  |  |
| B14 |  |  | 0.25 | 6 nM | 0.0013 s⁻¹ | 220000 M⁻¹ s⁻¹ |
| B15 | 36.1% | 169000 gMFI |  |  |  |  |
| B16 |  |  | 0.2 | 3.1 nM | 0.00035 s⁻¹ | 110000 M⁻¹ s⁻¹ |
| B17 |  |  | 0.09 | 4.2 nM | 0.0012 s⁻¹ | 290000 M⁻¹ s⁻¹ |
| B18 |  |  | 0.28 | 11 nM | 0.0013 s⁻¹ | 120000 M⁻¹ s⁻¹ |
| B19 |  |  | 0.16 | 6.7 nM | 0.00069 s⁻¹ | 100000 M⁻¹ s⁻¹ |
| B20 |  |  | 0.13 | 15 nM | 0.0019 s⁻¹ | 130000 M⁻¹ s⁻¹ |
| B21 |  |  | 0.23 | 6.3 nM | 0.0018 s⁻¹ | 290000 M⁻¹ s⁻¹ |
| B22 |  |  | 0.106 | 0.627 nM | 9.63e-05 s⁻¹ | 154000 M⁻¹ s⁻¹ |
| B23 |  |  | 0.1 | 290 nM | 0.011 s⁻¹ | 37000 M⁻¹ s⁻¹ |
| B24 |  |  | 0.09 | 9.6 nM | 0.0032 s⁻¹ | 330000 M⁻¹ s⁻¹ |
| B25 |  |  | 0.0852 | < 0.001 nM | < 1e-07 s⁻¹ | 42700 M⁻¹ s⁻¹ |
| B26 | 32.8% | 268000 gMFI |  |  |  |  |
